Reference: PMC11869483

Target: PcaLOOL12 (loosenin from Phanerochaete carnosa) produced in Pichia pastoris with a C-terminal His6-tag (Phanerochaete carnosa)
Assay: SEC-SAXS

Substance “PcaLOOL12 (loosenin from Phanerochaete carnosa) produced in Pichia pastoris with a C-terminal His6-tag (natural protein)” has a stoichiometry N of 2.
